B2: AS20 scFv (scFv, V domains shown)
VH: QVQLQQPGAELVKPGASVKMSCKASGYTFTSYNMHWVKQTPGQGLEWIGVIYPGNGDTSYNQKFKGKATLTADKSSSTAYMQLSSLTSEDSAVYYCARDYYGSSPLGYWGQGTTLTVSS
VL: QIVLTQSPAVMSASPGEKVTMTCSASSSISYMHWYQQKPGTSPKRWIYDTSKLASGVPARFSGSGSGTSYSLTISSMEAEDAATYYCHQRSSYPTFGGGTKLEIK
B4: Human BSSL (bile salt-stimulated lipase), native (enzyme)
chain: AKLGAVYTEGGFVEGVNKKLGLLGDSVDIFKGIPFAAPTKALENPQPHPGWQGTLKAKNFKKRCLQATITQDSTYGDEDCLYLNIWVPQGRKQVSRDLPVMIWIYGGAFLMGSGHGANFLNNYLYDGEEIATRGNVIVVTFNYRVGPLGFLSTGDANLPGNYGLRDQHMAIAWVKRNIAAFGGDPNNITLFGESAGGASVSLQTLSPYNKGLIRRAISQSGVALSPWVIQKNPLFWAKKVAEKVGCPVGDAARMAQCLKVTDPRALTLAYKVPLAGLEYPMLHYVGFVPVIDGDFIPADPINLYANAADIDYIAGTNNMDGHIFASIDMPAINKGNKKVTEEDFYKLVSEFTITKGLRGAKTTFDVYTESWAQDPSQENKKKTVVDFETDVLFLVPTEIALAQHRANAKSAKTYAYLFSHPSRMPVYPKWVGADHADDIQYVFGKPFATPTGYRPQDRTVSKAMIAYWTNFAKTGDPNMGDSAVPTHWEPYTTENSGYLEITKKMGSSSMKRSLRTNFLRYWTLTYLALPTVTDQEATPVPPTGDSEATPVPPTGDSETAPVPPTGDSGAPPVPPTGDSGAPPVPPTGDSGAPPVPPTGDSGAPPVPPTGDSGAPPVPPTGDSGAPPVPPTGDSGAPPVPPTGDAGPPPVPPTGDSGAPPVPPTGDSGAPPVTPTGDSETAPVPPTGDSGAPPVPPTGDSEAAPVPPTDDSKEAQMPAVIRF
notes: Native full-length protein purified from human milk (Astra Hässle AB); also called hBSSL; non-biotinylated human BSSL

How the values were obtained:
[1] = biological target: B4; assay: cell-based or functional assay
[2] = biological target: B4; assay: cell-based or functional assay; remark: listed apart in the source
[3] = biological target: B4; assay: SPR single cycle kinetics, hIgG4 S228P captured by anti-Fab
Outline: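 hIgG4 S228P captured on an immobilized anti-Fab surface; five BSSL concentrations injected, 1:5 dilutions from 50 nM (human) or from 500 nM (mouse). Human BSSL: single-cycle kinetics, 1:1 fit. Mouse BSSL: KD from steady-state equilibrium response versus concentration. Regeneration with 10 mM glycine-HCl pH 2.1.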

Biotinylated human BSSL [4] = biological target: T1, Biotinylated human BSSL (human, UniProt P19835 21-753, Biotinylated on glycosacarides, 30-40 biotin/BSSL); assay: flow cytometry displacement assay; 1.5 ug antibody, 1 ug b-hBSSL
T1 construct: hBSSL biotinylated in house; also called b-hBSSL; human BSSL-biotin
T1 sequence: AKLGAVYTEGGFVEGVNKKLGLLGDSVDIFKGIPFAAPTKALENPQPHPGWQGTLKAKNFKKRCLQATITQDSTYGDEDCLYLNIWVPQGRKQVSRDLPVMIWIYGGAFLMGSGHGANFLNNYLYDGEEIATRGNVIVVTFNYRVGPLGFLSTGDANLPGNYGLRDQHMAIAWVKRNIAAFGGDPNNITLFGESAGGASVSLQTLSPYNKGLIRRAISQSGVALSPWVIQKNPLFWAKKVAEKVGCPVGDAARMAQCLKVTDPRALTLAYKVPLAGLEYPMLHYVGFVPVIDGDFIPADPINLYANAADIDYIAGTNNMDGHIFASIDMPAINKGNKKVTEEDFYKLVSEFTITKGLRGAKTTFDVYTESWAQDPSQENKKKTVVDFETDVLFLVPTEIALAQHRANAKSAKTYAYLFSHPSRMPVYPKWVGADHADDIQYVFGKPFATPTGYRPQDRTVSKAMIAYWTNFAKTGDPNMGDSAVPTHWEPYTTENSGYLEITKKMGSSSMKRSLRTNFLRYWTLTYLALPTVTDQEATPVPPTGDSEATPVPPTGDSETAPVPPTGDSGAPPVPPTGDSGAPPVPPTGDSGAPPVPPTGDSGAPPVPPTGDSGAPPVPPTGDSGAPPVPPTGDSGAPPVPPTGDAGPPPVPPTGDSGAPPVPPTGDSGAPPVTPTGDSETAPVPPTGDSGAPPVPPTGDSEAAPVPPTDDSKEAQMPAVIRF
Outline: (§1)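 Antibody (0.5–3.0 μg per reaction) preincubated with 1 μg biotinylated human BSSL in PBS pH 7.4, 30 min at 4 °C, then with human buffy coat 30 min at 4 °C. After erythrocyte lysis/fixation, bound BSSL on CD14+ monocytes detected by labelled streptavidin via flow cytometry.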

Biotinylated human BSSL [5] = biological target: T1, Biotinylated human BSSL; assay: flow cytometry displacement assay; 3.0 ug antibody, 1 ug b-hBSSL
Outline: as §1

[6] = biological target: B4; assay: SPR single cycle kinetics, captured by anti-Fab, Absolute Antibody batch
Procedure: Kinetic parameters of the hIgG4 S228P clones were determined by SPR using BIACORE® T200 (GE Healthcare). An anti-Fab antibody (GE #28958325) was immobilized on a CM5 S sensor chip by primary amine coupling using NHS-EDC chemistry. The hIgG4 antibodies were captured by the anti-Fab antibody, and subsequently, five different concentrations of hBSSL (1:5 dilutions, 0.08-50 nM) or mBSSL (1:2 dilutions, 50-800 nM) were injected over the surface. The sensor chip surface was regenerated with 10 mM glycine-HCl pH 2.1. For binding to human BSSL, single cycle kinetic data was fitted to a 1:1 binding model and kinetic parameters were retrieved using software BlAevaluation. For mouse BSSL, a steady state analysis was performed by plotting the response level at equilibrium against each concentration, and KD values were retrieved by the BlAevalution software.

Mouse BSSL, recombinant [7] = biological target: T2, Mouse BSSL, recombinant (mouse, UniProt Q64285 21-599); assay: SPR steady state, hIgG4 S228P captured by anti-Fab; in-house production batch (Example 9); Table 12 marks this value # as unreliable
T2 construct: Bought (R&D Systems, Cat. no 5658-CE); also called mBSSL; murine BSSL
T2 sequence: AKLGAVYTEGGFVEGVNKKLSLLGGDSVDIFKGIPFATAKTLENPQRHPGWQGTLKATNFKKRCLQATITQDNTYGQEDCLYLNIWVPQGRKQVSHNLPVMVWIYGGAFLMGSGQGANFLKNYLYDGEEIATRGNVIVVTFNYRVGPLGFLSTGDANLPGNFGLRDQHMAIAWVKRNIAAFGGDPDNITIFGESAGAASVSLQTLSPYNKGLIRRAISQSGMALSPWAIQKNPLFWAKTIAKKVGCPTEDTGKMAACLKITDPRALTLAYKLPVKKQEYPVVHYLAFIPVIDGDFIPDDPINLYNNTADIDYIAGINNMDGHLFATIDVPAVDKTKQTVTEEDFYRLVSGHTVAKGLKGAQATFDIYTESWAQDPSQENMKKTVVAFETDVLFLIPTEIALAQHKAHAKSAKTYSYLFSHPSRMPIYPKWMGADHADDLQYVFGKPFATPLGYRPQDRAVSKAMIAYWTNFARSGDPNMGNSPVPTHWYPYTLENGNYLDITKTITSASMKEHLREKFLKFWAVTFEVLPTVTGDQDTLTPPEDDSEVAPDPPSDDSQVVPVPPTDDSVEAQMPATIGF
Procedure: Kinetic parameters of the hIgG4 S228P clones were determined by SPR using BIACORE® T200 (GE Healthcare). Single cycle kinetics was used to measure the affinity of the purified hIgG4 molecules to human and mouse BSSL. An anti-Fab antibody (GE Healthcare, #28958325) was immobilized on a CM5 S sensor chip by primary amine coupling using NHS-EDC chemistry. hIgG4 was captured by the anti-Fab antibody, and subsequently, five different concentrations of hBSSL (1:5 dilutions starting from 50 nM) or mBSSL (1:5 dilutions starting from 500 nM) were injected over the surface. The sensor chip surface was regenerated with 10 mM glycine-HCl pH 2.1. For binding to human BSSL, single cycle kinetic data was fitted to a 1:1 binding model and kinetic parameters were retrieved using software BlAevaluation. For mouse BSSL, a steady state analysis was performed by plotting the response level at equilibrium against each concentration, and KD values were retrieved by the BlAevalution software.

Mouse BSSL, recombinant [8] = biological target: T2, Mouse BSSL, recombinant; assay: HTRF competition
[9] = biological target: B4; assay: SPR kinetic screen, single concentration (estimated)
[10] = biological target: B4; assay: SPR single cycle kinetics, scFv captured by anti-FLAG M2
[11] = biological target: B4; assay: ELISA, hBSSL directly coated at 1 µg/ml, detection HRP anti-FLAG M2, A450
Mouse BSSL, recombinant [12] = biological target: T2, Mouse BSSL, recombinant; assay: SPR steady state, antibody immobilised
Procedure: (§2) Single cycle kinetics was used to measure the affinity of the antibodies. AS20 hIgG1 LALA-PG and anti-NP hIgG1 LALA-PG were immobilized on a CM5 S sensor chip by primary amine coupling using NHS-EDC chemistry. Five different concentrations of antigen (1:3 dilutions starting from 50 nM for hBSSL and 1:2 dilutions starting from 800 nM for mBSSL) were injected over the surface. The sensor chip surface was regenerated with 10 mM glycine-HCl pH 2.1. Obtained single cycle kinetic data was fitted to a Langmuir 1:1 binding model and kinetic parameters were retrieved using the software BlAevaluation. For mBSSL, a steady state analysis was also performed by plotting the response level at equilibrium against each concentration, and KD values were retrieved by the BlAevalution software.

[13] = biological target: B4; assay: SPR single cycle kinetics, antibody immobilised
Procedure: as §2
A single cycle kinetic SPR approach was used to determine the affinity of the IgG.

AS20 scFv = biological target: B2; assay: HTRF competition against 5 nM b-hBSSL for 2.5 nM AS20 scFv
Procedure: In order to study the interaction between AS20 scFv and native mouse BSSL, a competition assay was developed. Detection of binding was enabled through donor molecule terbium-conjugated α-FLAG antibody (Cisbio #611FG2TL), which interacts with the C-terminal located FLAG-tag of the scFv, and acceptor molecule streptavidin-conjugated XL665 (Cisbio #610SAXL), which interacts with the biotin-moieties on human BSSL.
2.5 nM of AS20 scFv was pre-incubated for 2 hours with the mouse or human orthologue of BSSL, after which 5 nM b-hBSSL and the FRET donor and acceptor molecules were added. The mixture was finally incubated at room temperature for 16 hours and the binding signal (665 nm) and background/noise signal (615 nm) was measured using EnVision (PerkinElmer). The experimental output, Delta R, was calculated for each point using four replicates and two blanks.

B1: S-SL048-106 hIgG4 S228P (antibody, V domains shown)
VH: QVQLVQSGAEVKKPGASVKVSCKASGYTFTSYNMHWVRQAPGQGLEWIGVIYPGDGSTSYNQKFQGRVTMTRDTSTSTVYMELSSLRSEDTAVYYCARDYYGSSPLGYWGQGTLVTVSS
VL: DIQMTQSPSSLSASVGDRVTITCSASSSISYMNWYQQKPGKAPKLLIYATSKLPSGVPSRFSGSGSGTDFTLTISSLQPEDFATYYCHQRSSTPTFGQGTKLEIKR
notes: also called mAb106
[1]
  BSSL hydrolysis of triglycerides, relative value (no antibody = 100%); 0.19 ug antibody: 109%
  BSSL hydrolysis of triglycerides, relative value (no antibody = 100%); 0.38 ug antibody: 123%
  BSSL hydrolysis of triglycerides, relative value (no antibody = 100%); 0.75 ug antibody: 129%
  BSSL hydrolysis of triglycerides, relative value (no antibody = 100%); 1.5 ug antibody: 120%
  BSSL hydrolysis of triglycerides, relative value (no antibody = 100%); 3.0 ug antibody: 99.2%
  BSSL hydrolysis of triglycerides, relative value (no antibody = 100%); 6.0 ug antibody: 104%
[2]
  BSSL hydrolysis of cholesterol esters, relative value (no antibody = 100%); 0.19 ug antibody: 94.8%
  BSSL hydrolysis of cholesterol esters, relative value (no antibody = 100%); 0.38 ug antibody: 97.2%
  BSSL hydrolysis of cholesterol esters, relative value (no antibody = 100%); 0.75 ug antibody: 93.9%
  BSSL hydrolysis of cholesterol esters, relative value (no antibody = 100%); 1.5 ug antibody: 95.3%
  BSSL hydrolysis of cholesterol esters, relative value (no antibody = 100%); 3.0 ug antibody: 99%
  BSSL hydrolysis of cholesterol esters, relative value (no antibody = 100%); 6.0 ug antibody: 90.5%
[3]
  Kd: 1.2 nM
Biotinylated human BSSL [4]
  percentage reduction of b-hBSSL binding to CD14+ monocytes: 52%
Biotinylated human BSSL [5]
  percentage reduction of b-hBSSL binding to CD14+ monocytes: 61%
[6]
  Kd: 1.2 nM
Mouse BSSL, recombinant [7]
  Kd: 111 nM

## B2
Mouse BSSL, recombinant [8]
  fold lower affinity than for human BSSL: ~100 fold
[9]
  Kd: 2 nM
[10]
  Kd: 0.6 nM
  koff: 0.00012 s⁻¹
  kon: 190000 M⁻¹ s⁻¹
[11]
  EC50 (read off the curve): ~0.02 mg/L

B3: AS20 hIgG1 LALA-PG (antibody)
heavy: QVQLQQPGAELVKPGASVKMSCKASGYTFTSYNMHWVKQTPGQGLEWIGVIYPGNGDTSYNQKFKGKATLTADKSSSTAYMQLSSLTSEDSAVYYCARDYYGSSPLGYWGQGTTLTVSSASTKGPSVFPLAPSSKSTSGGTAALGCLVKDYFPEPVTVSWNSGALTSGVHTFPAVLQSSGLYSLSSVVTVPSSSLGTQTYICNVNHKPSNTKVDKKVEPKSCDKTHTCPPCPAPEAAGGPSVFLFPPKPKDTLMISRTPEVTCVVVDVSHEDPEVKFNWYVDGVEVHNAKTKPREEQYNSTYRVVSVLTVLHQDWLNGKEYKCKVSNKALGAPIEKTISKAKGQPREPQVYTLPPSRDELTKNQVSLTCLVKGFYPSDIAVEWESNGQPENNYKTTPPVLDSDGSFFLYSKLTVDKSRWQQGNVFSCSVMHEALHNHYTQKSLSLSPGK
light: QIVLTQSPAVMSASPGEKVTMTCSASSSISYMHWYQQKPGTSPKRWIYDTSKLASGVPARFSGSGSGTSYSLTISSMEAEDAATYYCHQRSSYPTFGGGTKLEIKRTVAAPSVFIFPPSDEQLKSGTASVVCLLNNFYPREAKVQWKVDNALQSGNSQESVTEQDSKDSTYSLSSTLTLSKADYEKHKVYACEVTHQGLSSPVTKSFNRGEC
notes: also called AS20 IgG1 LALA-PG
Mouse BSSL, recombinant [12]
  Kd: 361 nM
[13]
  Kd: 0.91 nM

## B4
AS20 scFv
  IC50: ~2 nM
